Columns and labels:
integrin αvβ3 = integrin αvβ3 (UniProt P06756 31-1048; P05106 27-788); assay: cell-based or functional assay
[1] = target: T1, Tie1 receptor (full length receptor construct) (UniProt P35590 22-1138, limits assumed); assay: co-immunoprecipitation from co-transfected 293 cells: anti-Tie1 IP, anti-gD immunoblot
T1 construct: whole, on cells; Full length receptor expressed in 293 cells and assayed from RIPA lysate, not on intact cells

[2] = target: T2, Tie2 receptor (full length receptor construct) (UniProt Q02763 23-1124, limits assumed); assay: co-immunoprecipitation from co-transfected 293 cells: anti-Tie2 IP, anti-gD immunoblot
T2 construct: whole, on cells; Full length receptor expressed in 293 cells and assayed from RIPA lysate, not on intact cells
T2 sequence (Q02763 23-1124 limits assumed): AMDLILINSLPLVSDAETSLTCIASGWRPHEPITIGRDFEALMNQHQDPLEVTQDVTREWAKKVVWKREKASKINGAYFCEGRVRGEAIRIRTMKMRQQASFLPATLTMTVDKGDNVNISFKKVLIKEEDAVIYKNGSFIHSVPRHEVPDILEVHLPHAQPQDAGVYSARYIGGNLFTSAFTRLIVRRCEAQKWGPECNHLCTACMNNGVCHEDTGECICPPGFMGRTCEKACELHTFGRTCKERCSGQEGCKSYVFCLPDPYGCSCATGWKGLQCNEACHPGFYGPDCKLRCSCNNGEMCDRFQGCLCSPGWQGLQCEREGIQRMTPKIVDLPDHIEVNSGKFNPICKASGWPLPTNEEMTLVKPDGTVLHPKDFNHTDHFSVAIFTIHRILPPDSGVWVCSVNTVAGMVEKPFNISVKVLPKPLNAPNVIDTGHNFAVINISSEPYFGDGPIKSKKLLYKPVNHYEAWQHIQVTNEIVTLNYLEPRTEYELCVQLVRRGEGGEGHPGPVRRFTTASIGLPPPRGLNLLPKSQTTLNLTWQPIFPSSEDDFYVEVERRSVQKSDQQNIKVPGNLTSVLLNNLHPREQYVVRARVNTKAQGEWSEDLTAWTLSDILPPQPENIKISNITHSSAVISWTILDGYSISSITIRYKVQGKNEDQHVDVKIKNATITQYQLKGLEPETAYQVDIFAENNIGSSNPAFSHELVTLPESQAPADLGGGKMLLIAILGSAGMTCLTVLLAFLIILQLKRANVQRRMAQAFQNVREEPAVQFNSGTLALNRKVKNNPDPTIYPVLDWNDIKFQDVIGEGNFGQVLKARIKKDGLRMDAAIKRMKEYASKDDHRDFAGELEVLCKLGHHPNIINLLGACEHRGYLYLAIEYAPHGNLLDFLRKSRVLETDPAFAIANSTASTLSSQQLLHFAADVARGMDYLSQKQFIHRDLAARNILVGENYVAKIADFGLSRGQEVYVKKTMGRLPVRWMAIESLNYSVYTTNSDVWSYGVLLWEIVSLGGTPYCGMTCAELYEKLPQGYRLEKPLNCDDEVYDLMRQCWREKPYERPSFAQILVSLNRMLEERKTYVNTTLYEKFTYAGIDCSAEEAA

T1 sequence (P35590 22-1138 limits assumed): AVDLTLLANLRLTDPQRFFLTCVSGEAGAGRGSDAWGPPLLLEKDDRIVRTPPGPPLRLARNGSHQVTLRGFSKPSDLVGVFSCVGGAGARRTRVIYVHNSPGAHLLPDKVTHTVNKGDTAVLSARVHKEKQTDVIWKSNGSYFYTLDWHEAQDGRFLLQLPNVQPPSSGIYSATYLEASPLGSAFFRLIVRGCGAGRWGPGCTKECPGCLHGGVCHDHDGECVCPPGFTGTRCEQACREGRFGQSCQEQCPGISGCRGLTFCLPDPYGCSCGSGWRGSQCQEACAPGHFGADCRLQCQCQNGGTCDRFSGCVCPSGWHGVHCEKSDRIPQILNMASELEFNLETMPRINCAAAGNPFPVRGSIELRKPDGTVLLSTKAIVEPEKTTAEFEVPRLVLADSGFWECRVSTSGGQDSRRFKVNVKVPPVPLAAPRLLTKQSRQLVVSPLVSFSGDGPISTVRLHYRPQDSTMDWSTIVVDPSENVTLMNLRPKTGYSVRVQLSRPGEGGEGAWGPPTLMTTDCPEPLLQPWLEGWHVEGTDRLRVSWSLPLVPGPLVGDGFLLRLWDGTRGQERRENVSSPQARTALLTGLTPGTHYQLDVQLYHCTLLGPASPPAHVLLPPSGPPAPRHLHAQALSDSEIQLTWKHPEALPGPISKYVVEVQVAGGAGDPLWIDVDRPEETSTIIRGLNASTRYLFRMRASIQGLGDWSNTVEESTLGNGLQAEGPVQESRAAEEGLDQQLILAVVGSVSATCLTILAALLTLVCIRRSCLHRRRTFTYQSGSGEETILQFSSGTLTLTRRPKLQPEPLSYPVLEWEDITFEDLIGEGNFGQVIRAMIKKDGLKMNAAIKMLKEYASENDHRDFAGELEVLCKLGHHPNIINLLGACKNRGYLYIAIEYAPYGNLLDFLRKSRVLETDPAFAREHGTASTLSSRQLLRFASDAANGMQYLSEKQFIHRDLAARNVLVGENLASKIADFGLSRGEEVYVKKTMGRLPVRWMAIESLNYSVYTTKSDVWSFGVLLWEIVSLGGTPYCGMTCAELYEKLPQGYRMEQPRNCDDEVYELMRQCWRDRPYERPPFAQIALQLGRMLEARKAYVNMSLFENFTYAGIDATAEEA
integrin αvβ3, sequence (P06756 31-1048, chain 1 of 2): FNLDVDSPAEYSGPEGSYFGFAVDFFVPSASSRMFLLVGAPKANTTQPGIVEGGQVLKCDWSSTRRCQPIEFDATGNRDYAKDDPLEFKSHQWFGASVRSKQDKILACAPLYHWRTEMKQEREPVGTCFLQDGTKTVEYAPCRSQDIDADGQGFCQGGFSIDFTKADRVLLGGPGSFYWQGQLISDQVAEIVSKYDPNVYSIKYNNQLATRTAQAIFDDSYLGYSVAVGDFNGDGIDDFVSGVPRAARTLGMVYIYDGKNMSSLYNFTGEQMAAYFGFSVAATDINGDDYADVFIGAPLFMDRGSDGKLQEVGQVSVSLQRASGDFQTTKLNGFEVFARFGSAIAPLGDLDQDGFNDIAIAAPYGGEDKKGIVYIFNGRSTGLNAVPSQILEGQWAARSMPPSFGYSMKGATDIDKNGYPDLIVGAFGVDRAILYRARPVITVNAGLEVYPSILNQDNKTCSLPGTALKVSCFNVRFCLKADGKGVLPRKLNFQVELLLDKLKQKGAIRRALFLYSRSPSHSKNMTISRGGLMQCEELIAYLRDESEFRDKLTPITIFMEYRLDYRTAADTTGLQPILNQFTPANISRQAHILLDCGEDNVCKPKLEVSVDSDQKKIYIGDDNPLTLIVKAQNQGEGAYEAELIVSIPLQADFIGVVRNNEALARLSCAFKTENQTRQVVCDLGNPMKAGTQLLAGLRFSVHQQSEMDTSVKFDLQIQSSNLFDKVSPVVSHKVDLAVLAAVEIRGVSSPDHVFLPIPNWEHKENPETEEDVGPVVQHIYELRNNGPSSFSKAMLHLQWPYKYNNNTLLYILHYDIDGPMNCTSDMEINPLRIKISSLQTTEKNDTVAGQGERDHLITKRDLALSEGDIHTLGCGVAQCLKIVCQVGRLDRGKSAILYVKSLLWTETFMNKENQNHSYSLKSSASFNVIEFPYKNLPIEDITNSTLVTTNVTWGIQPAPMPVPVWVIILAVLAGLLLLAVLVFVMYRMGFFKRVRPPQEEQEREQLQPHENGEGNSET
integrin αvβ3, sequence (P05106 27-788, chain 2 of 2): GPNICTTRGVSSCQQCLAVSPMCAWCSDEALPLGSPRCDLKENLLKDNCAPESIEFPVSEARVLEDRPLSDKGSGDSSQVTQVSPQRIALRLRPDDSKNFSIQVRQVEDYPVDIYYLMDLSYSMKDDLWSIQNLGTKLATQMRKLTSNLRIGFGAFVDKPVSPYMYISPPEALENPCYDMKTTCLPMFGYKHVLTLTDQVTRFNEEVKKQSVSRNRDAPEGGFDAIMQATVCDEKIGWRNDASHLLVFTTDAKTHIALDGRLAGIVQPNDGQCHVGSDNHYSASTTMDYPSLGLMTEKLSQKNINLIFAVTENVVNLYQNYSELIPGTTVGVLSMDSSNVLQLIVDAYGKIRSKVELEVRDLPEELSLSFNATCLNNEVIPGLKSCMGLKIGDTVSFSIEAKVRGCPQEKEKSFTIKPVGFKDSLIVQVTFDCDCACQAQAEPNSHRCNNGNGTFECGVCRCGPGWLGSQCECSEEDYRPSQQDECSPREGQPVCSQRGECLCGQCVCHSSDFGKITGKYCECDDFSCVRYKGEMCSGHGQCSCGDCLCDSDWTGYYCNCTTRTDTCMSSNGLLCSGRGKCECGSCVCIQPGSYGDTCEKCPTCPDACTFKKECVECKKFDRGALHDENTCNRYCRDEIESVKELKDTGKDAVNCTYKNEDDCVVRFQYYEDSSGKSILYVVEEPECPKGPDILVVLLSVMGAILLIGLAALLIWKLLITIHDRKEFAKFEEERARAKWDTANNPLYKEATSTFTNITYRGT

B1: recombinant human Angptl3 tagged with an amino-terminal gD epitope (ligand, not shown: small tags and cut ends)
chain: SRIDQDNSSFDSLSPEPKSRFAMLDDVKILANGLLQLGHGLKDFVHKTKGQINDIFQKLNIFDQSFYDLSLQTSEIKEEEKELRRTTYKLQVKNEEVKNMSLELNSKLESLLEEKILLQQKVKYLEEQLTNLIQNQPETPEHPEVTSLKTFVEKQDNSIKDLLQTVEDQYKQLNQQHSQIKEIENQLRRTSIQEPTEISLSSKPRAPRTTPFLQLNEIRNVKHDGIPAECTTIYNRGEHTSGMYAIRPSNSQVFHVYCDVISGSPWTLIQHRIDGSQNFNETWENYKYGFGRLDGEFWLGLEKIYSIVKQSNYVLRIELEDWKDNKHYIEYSFYLGNHETNYTLHLVAITGNVPNAIPENKDLVFSTWDHKAKGHFNCPEGYSGGWWWHDECGENNLNGKYNKPRAKSKPERRRGLSWKSQNGRLYSIKSTKMLIHPTDSESFE
modifications: glycosylated (PNGase-F sensitive)
notes: Purified from baculovirus-infected insect cells for the adhesion and migration assays; Expressed in transiently transfected 293 cells for the co-immunoprecipitation; Both are treated here as one molecule; also called hAngptl3; gD-tagged Angptl3
Integrin αvβ3
  migration of HMVEC (cells/microscopic field): 2.5 fold
[1]
  binding result: no binding
[2]
  binding result: no binding

— patent US20030215451A1 (Genentech, published 2003)
